Molecular target: human FLT3 domain 1 Fc fusion protein (wild type) (human) (UniProt P36888)
Assay: SPR (Carterra LSA); FLT3 D1-Fc captured on anti-human Ig Fc, Fab as analyte; mean ± SEM, n=4

| Binder | Kd | koff | kon |
| --- | --- | --- | --- |
| Fab fragment of antibody 17566 (Fab, V domains shown) VH: QVTLKESGPVLVKPTETLTLTCTVSGFSFNNARMGVNWIRQPPGKALEWLAHIFSNDEKSYSTSLKSRLTISKDISKSQVVLTMTNMDPVDTATYYCARIVGYGSGWRLLGDYWGQGTLVTVSS VL: AIQMTQSPSSLSASVGDRVTITCRASQGITNDLGWYQQKPGKAPKLLIYAASSLQSGVPSRFSGSGSGTDFTLTISSLQPEDFATYYCLQDYNYPWTFGQGTKVEIK | 5.2 nM | 0.0046 s⁻¹ | 890000 M⁻¹ s⁻¹ |
| Fab fragment of antibody 17543 (Fab, V domains shown) VH: QVTLKESGPVLVKPTETLTLTCTVSGFSLINARMGVTWIRQPPGKALEWLAHIFSNDEKSYSTSLKSRLTISKDTSKSQVVLTMTNMDPVDTATYYCARIPGYSRGWDYYYYGMDVWGQGTMVTVSS VL: DIQMTQSPSSLSASVGDRVTITCRASQGIRNDLGWYQQKPGKAPKRLIYAASTLQSGVPSRFSGSGSGTEFTLTISSLQPEDFATYYCLQHNSYPWTFGQGTKVEIK | 19.3 nM | 0.0099 s⁻¹ | 520000 M⁻¹ s⁻¹ |
| Fab fragment of antibody 17497 (Fab, V domains shown) VH: QVQLQESGPGLVKPSGTLSLTCAVSGGSISSTNWWSWVRQPPGKGLEWIGEISHRGSTNYNPSLKSRVTISVDKSKNQFSLKLSSVTAADTAVYYCARDPEMTLYYYYGMDVWGQGTTVTVSS VL: DIQMTQSPSSLSASVGDRVTITCRASRGIRNDLGWYQQKPGKAPKRLIYAASSLQSGVPSRFSGSGSGTEFTLTISSLQPEDFATYYCLQHNSYPLTFGGGTKVEIK | 3.1 nM | 0.003 s⁻¹ | 980000 M⁻¹ s⁻¹ |

Reference: US20250179195A1
